Source: the supplement of paper PMC12764529
± gives the half width of the 95% confidence interval.

How the values were obtained:
[1] = folding stability dG unfold (combined trypsin and chymotrypsin); higher = more stable
In short: (§1)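 Only designs with AlphaFold2 dimer inter-PAE above 15 were retained; each was a mini-protein under 80 residues with no cysteine, in a PA-tagged cDNA display construct. After digestion with trypsin and chymotrypsin and sequencing, K50 was inferred by Bayesian fitting of counts, and unfolding free energy was derived per protease or combined against a sequence-predicted unfolded-state K50 and a shared folded-state K50.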

[2] = folding stability dG unfold from trypsin proteolysis; higher = more stable
In short: as §1

[3] = folding stability dG unfold from chymotrypsin proteolysis; higher = more stable
In short: as §1

Sequence | folding stability dG unfold [1] [kcal/mol] | folding stability dG unfold [2] [kcal/mol] | folding stability dG unfold [3] [kcal/mol]
SMVKTIEIEIVLPPGEWVKLTEEDIKEKIEKELPGWKILSIDITKEERLVPGGTEPLVVIKAKILVEKKESA [r9_1189_JUSTAS] | 3.83 ± 0.21 | 4.26 ± 0.26 | 3.19 ± 0.14
SMVLARIKVRVRDPVTGEELDVEIDLLAPVEVAEEAAEEFRKLFPGLEVEVDLVEVVPLPPVTPEQLAKESA [r9_421_TrMRF] | 2.48 ± 0.083 | 1.82 ± 0.046 | 2.823 ± 0.017
SMVTETSEEVKLPSPVRLLIDKKITTFPESGVVEVPTLVTVIPPSGPDTTLPYRVLYTINDDTYTEKRLLSA [r9_154_JUSTAS] | -0.125 ± 0.14 | -0.277 ± 0.085 | -0.0857 ± 0.12
SMVTVDEKEDPNSDNKIYTVSLPENGEDVITITKAPDGTTTVTLHYPDGSTTTKTFPGNTPVTEAIKLLLSA [r9_346_JUSTAS] | 1.74 ± 0.15 | 2.23 ± 0.12 | 1.39 ± 0.083
SMVTVERPESTKTIDAPPSATVEFDPATGTLRVYSPDGTATTVPLSPTWSIQPSDNSVTVTAPPASPAAPSA [r9_653_JUSTAS] | 0.421 ± 0.066 | 0.056 ± 0.059 | 0.669 ± 0.1
SMVVLPVRYPDLSPEEARAAVEALAAEIEAAVGAEVRVEVEVERAPDGTPVRVLVTATVVIRTAADALLLSA [r9_21_JUSTAS] | 1.09 ± 0.12 | 0.946 ± 0.061 | 1.16 ± 0.068
SMYKLSVYRNGQPVPEEEALERVKRIEEELGREVDPEELARLLAAEPDTVVTVTKYAEPGKPIGTLTYTRSA [r9_1045_JUSTAS] | 1.39 ± 0.16 | 1.32 ± 0.08 | 1.4 ± 0.17
SMYVIETSANKTYTVNVPPDGLVTITYPDGSTETRKFTSEEDLEAFAEELSKKYPDAPATIKPVPLEELGSA [r9_1206_JUSTAS] | 0.959 ± 0.25 | 1.21 ± 0.11 | 0.473 ± 0.26
SNELAKEIADELKKQGYEVKDVEVQYSPDDGMVEIEARIRHPDDGRQYRIDIHVNPDDGKITQVKIEPRPSA [r9_814_TrROS] | 0.825 ± 0.17 | 0.857 ± 0.028 | 0.644 ± 0.17
SNPISAVVPSPGGRYVLVVEYKDGSVEVYEFEGLSTAEEAKERALALLKESTEGEPREITRVVVLPAPPGSA [r9_1135_TrMRF] | 4.33 ± 0.11 | 4.3 ± 0.17 | 4.3 ± 0.051
SNPWVEITIYFPMRPDPNGKMQPLSPSELLEELLKQGFPIKDIDIDEVTDNYIPITIRIDAKDGKIEIEWSA [r9_225_TrROS] | 2.85 ± 0.19 | 2.12 ± 0.21 | 3.18 ± 0.13
SNVHIHVEPDPDGRVKITLMMPPDNPDEFAEEIAENLGYPVKITDIEPFPFKKNGKPREYYMIEIEIRLPSA [r9_431_TrROS] | 2.17 ± 0.25 | 1.15 ± 0.13 | 2.56 ± 0.2
SNYLMIRIKEIDPNNPNKIKIEDIHPMPDNGNVQINIEHPGQEIYVMFNSADDAEEFINTLLKNYGLKPESA [r9_258_TrROS] | 1.33 ± 0.098 | 0.925 ± 0.053 | 1.6 ± 0.11
SPEIKIELVYDEETEELYLEIEIRFPESEEEAIEALKKLLEELGFEVVEIEEIEVEEDGTVRIRVRIRKKSA [r9_876_TrROS_Hall] | > 6 | 4.87 ± 0.31 | 4.47 ± 0.7
SPFIMIRIDIERKNGKEVEMMFPVPANNIKNNLRDHLGPGYKVKITDIEPIDPEQFPPGQMIKIRYRVKPSA [r9_803_TrROS] | 1.79 ± 0.18 | 1.73 ± 0.048 | 1.71 ± 0.13
SPGMEPIREWELKLPDPDGEDKDLEVEMYRMPEGNYYVDISIPNGKKIPFPMPPDEPITPDDIRNFIKKFSA [r9_616_TrROS] | 0.394 ± 0.28 | 0.133 ± 0.26 | 0.613 ± 0.23
SPGVTVEISTSTLPNGTRVTTLTTTTFDPQTGTTSTTTTVTVSPAPSSASPLRRELVTRPDGTLVPAALLSA [r9_898_JUSTAS] | 0.168 ± 0.076 | -0.234 ± 0.13 | 0.235 ± 0.16
SPGWYKVDIEIPMKEIQEEFGDPDKPITADRIKERVKKIAETIGFEVRDVEIEMDPNGWVRVTVTIPVKNSA [r9_52_TrROS] | 3.64 ± 0.19 | 3.77 ± 0.3 | 3.89 ± 0.11
SPIKLPIVFPNLPKEEAKEAVEALAKELEEKYGFKIEVEVEELRAPDGKLVAVVAIATIEKFGEEDKLLFSA [r9_21_TrMRF] | 1.2 ± 0.18 | 1.3 ± 0.08 | 1.12 ± 0.14
SPIRIRIWNPKNNVPIDEIDIQPNEDGNYGIKIKFWMPGKQHEHTIPIPPGETADEFINDHGIRSIEIEPSA [r9_492_TrROS] | 0.7 ± 0.086 | 0.13 ± 0.085 | 1.01 ± 0.11
SPKELEFKHPDNGMEVKIRLDPNQGRIEIEVRPPNGPPVKMDMEVTDDRIKIDIYYPGGRPMMQLEFPLPSA [r9_665_TrROS] | 2.88 ± 0.085 | 2.92 ± 0.15 | 2.79 ± 0.074

Sequence | folding stability dG unfold [1] [kcal/mol] | folding stability dG unfold [2] [kcal/mol] | folding stability dG unfold [3] [kcal/mol]
SPKIKIVSVSRTAGGALVALLELEDRPITLYRPLALPYILASAEIPGTNEVKTILAPSSISPEEIAKLLGSA [r9_522_TrMRF] | 1.75 ± 0.089 | 1.59 ± 0.037 | 1.75 ± 0.09
SPKVTLTLEGKVITFPAPLAEKLLGELQRKGYKVKILSVEPDPETDEIYLVMEVEPLKPPPLPPPNPLLESA [r9_448_TrMRF] | 2.05 ± 0.35 | 1.16 ± 0.14 | 2.28 ± 0.062
SPLTAEQIKKLLRELFPNAKIVSIEYDKENKTVTITFEDGLKIEVTVTEDGRVIIRITLPGKEITIEIEVSA [r9_304_TrROS_Hall] | 4.44 ± 0.22 | 4.22 ± 0.3 | 4.03 ± 0.23
SPLVLNPEGRTLTITLTVTVDPDVDRQVVPVLVVDEGAPRTFTFEVPKGLAGPVTFTLEIDLPPGAYVEVSA [r9_973_TrMRF] | 2.18 ± 0.049 | 2.05 ± 0.028 | 2.29 ± 0.066
SPNLKPVEFPIKIPGYKIRRVSIWKSPDGPVEIFVRFPDGWYYEFEIPPNGDIQPMKITEAVPPDEDKKNSA [r9_1075_TrROS] | 1.38 ± 0.16 | 1.57 ± 0.086 | 1.14 ± 0.17
SPNMQPVEMEFKIKVPGKPVDIKIEMWRMPDGQTRMDIRYPDGRSIMFNPSNGSIKIYDPKDGKPLAEISSA [r9_970_TrROS] | 1.38 ± 0.16 | 1.1 ± 0.057 | 1.47 ± 0.073
SPPVRARIRVERLPDGSVRVELEVEFPDGVRVRIETLEAPPETGVVRVRARFFPPDGSSVEFEFTFPLLRSA [r9_1179_TrMRF] | 4.52 ± 0.11 | 3.74 ± 0.086 | 4.96 ± 0.12
SPQNLVRIAEIKVELKLDGKKYIITIEVYRPPDSDEVIVRVKVIDPSSDKSSPELEKIAKELEKKIEEELKS [r1_229_JUSTAS] | 3.54 ± 0.18 | 2.53 ± 0.19 | 4.09 ± 0.1
SPRIKIDIPFFNANGHPQEVEIEYSPTDGMLMIKFPRNGYYIMIQIKRIEWEDGKLEIELDIFIMPPGDFSA [r9_587_TrROS] | 4.17 ± 0.43 | 3.01 ± 0.18 | 4.55 ± 0.22
SPSTTIPQTITLDTKLPNGKPATPEEVKAIAEEIVKKLEKEKGVKISINVKVTPVDSSGKYKLDITITIIKS [r1_231_JUSTAS] | 2.59 ± 0.11 | 2.14 ± 0.047 | 2.81 ± 0.072
SPVEIVSEETDPNGGTKYKTYSNPQADVRIEVAYPSSGITITVHFPDSTSTKSFSSEADAEKEVVRLAASSA [r9_527_JUSTAS] | 0.711 ± 0.11 | 0.339 ± 0.086 | 0.944 ± 0.15
SPVLEKIRKLVEELLKKLGIEVKEGETVEIEITLPDGSTIRITFDAKTKKITVEITIDGKKVTLTLEIKPSA [r9_426_TrROS_Hall] | > 6 | 4.2 ± 0.3 | 5.68 ± 0.72
SPVSLSFTTAPSGLPTVTSASQPADGSLLLTLTEPATGATTTLTLPPGLPPGVERTVTLPGPDGATTLTVGS [r1_43_JUSTAS] | 0.364 ± 0.073 | -0.678 ± 0.19 | 0.723 ± 0.11
SPVVVTTSPGPDGGARVTIYFPKTGKPIEFDITDPDLVEESTSDPNTRVDIPEEVLRSLAPDLFTGFTTESA [r9_390_TrMRF] | 0.362 ± 0.065 | 0.497 ± 0.046 | 0.241 ± 0.1
SPWYVRIKLEYPGKEKRIMIPPDESISQIKDNIRDFAREMGLEEPPLDDFKIEDVEVFPDENGMVSIEIKSA [r9_1053_TrROS] | 0.819 ± 0.41 | 0.606 ± 0.32 | 1.15 ± 0.21
SPYTVDSVSEDPSRNSTTVLNFPDGTTVTVTYDPSNPSLATVTVRPADGTTETTTVPLDEPFVVNLTVNPSA [r9_875_JUSTAS] | 1.02 ± 0.21 | 0.922 ± 0.074 | 0.94 ± 0.17
SQWVIKIKFPNPDGEPVKIIFPVEEIQEIFKEEHGEPSSPQEFADRLAKHHPNVDVEIMPLDDMPPEQLNSA [r9_1085_TrROS] | -0.0736 ± 0.34 | -0.998 ± 0.66 | 0.42 ± 0.21
SRDLLKELAEKFPNFEPKGVQEEPTDNGGVKLQVIARHPKNGRYYKIEITVPPDGKIEDIEIEPVPLDDLSA [r9_274_TrROS] | 2.61 ± 0.09 | 2.3 ± 0.045 | 2.823 ± 0.021
SRRLITIEITVTLPGNPEVTLSKTLKLPTEDVEEAIEKAKKEFKEEFGIPEDVPVKIEVTVSTSDGDPSLQS [r1_149_JUSTAS] | 1.96 ± 0.068 | 2.53 ± 0.18 | 1.56 ± 0.049
SRTIENPDNGIKITVDRVPGGRYRVHIFNPGGKPIHEREIPDMPIPPGDTREIKIPIKGLPPGMYLMLEPWS [r1_263_TrROS] | 0.719 ± 0.13 | 0.502 ± 0.16 | 0.842 ± 0.13
SSAEEIVEKLKKELEEKLPEDYKITSVTLTKSPDGIVTAPMTIKSSDGVESTVTVTYDLKTGKITIEVNSSA [r9_219_JUSTAS] | 4.73 ± 0.22 | 3.42 ± 0.25 | 4.84 ± 0.12
